Laboratory results as given in PMC7864079, “Molecular basis for histone H3 “K4me3-K9me3/2” methylation pattern readout by Spindlin1” (The Journal of Biological Chemistry, 2021).

Target: T1, Spindlin1_50–262 (Homo sapiens, UniProt Q9Y657)
T1 construct: The Spindlin1_50–262 samples were dialyzed against the buffer; GST (N, cleaved yes); made in house; host or cells: Escherichia coli BL21 (DE3)
Assay: Thermal shift assay (TSA), Spindlin1_50–262 mixed with histone H3 peptides
Format: binding
Settings: the row's label is the comparator peptide
Procedure: Recombinant proteins were overexpressed in Escherichia coli BL21 (DE3) strain. […] After cell lysis and centrifugation, the supernatant was loaded onto a GST affinity column and washed with lysis buffer. Then the bound proteins were subjected to on-column cleavage by PreScission Protease overnight. […] Purified peak fractions were concentrated to 25 mg/ml in 150 mM NaCl, 20 mM Tris, pH 8.0, aliquoted, and stored at −80°C for future use. The TSA was performed with a CFX96 real-time PCR instrument (Bio-Rad). […] All solutions were prepared in 25 µl of the same buffer (20 mM Hepes Na, pH 7.5, 150 mM NaCl) and incubated at 4°C for 1 h. During TSA assays, samples were heated from 25°C to 90°C at a rate of 0.5°C per minute. Protein denaturation progress was monitored by increased fluorescence signal of Sypro Orange, which captures the exposure of the protein hydrophobic core during thermal unfolding. Changes in the fluorescence signal were recorded and analyzed by the software CFX-Manager (Bio-Rad). When 50% of the protein is denatured, the folding and unfolding states of the protein are in dynamic equilibrium, and the corresponding temperature is the protein's melting temperature.

T1 sequence (Q9Y657 50-262): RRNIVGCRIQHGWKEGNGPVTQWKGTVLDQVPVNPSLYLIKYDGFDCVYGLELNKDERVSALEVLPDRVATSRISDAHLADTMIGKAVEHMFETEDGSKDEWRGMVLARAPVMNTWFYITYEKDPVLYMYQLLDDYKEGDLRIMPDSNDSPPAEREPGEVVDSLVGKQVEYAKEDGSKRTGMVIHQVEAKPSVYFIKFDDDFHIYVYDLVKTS

amount by which the Tm with H3_1–20 “K4me3-K9me3” ([…]) is greater than the Tm with this peptide | Substance
15.0 °C | unmodified H3_1–20: unmodified synthetic histone H3 residues 1–20 peptide
12.0 °C | H3_1–20 K9me3: synthetic histone H3 residues 1–20 peptide with K9me3
